{"source": "patent US7442684", "about": "(TRUSTEES OF COLUMBIA UNIVERSITY IN THE CITY OF NEW YORK, dated 2008)", "binders": {"B1": {"name": "β-hFSH-CTP-α-hFSH fusion protein (ligand)", "chain": "not shown", "modifications": "O-linked glycosylation on serines of the CTP linker; N-linked glycosylation on the FSH subunits (sites not numbered on this entry)", "notes": "Secreted from CHO cells; also called β-hFSH-CTP-α analogue; rFSH-CTP"}}, "biological_target": "T1, human FSH receptor (human, UniProt P23945 18-695)", "T1 construct": "whole, on cells; Expressed in Y-1 (Y1) cells. cAMP is the read-out; also called hFSH receptor; recombinant native hFSH receptor", "T1 sequence (looked up)": "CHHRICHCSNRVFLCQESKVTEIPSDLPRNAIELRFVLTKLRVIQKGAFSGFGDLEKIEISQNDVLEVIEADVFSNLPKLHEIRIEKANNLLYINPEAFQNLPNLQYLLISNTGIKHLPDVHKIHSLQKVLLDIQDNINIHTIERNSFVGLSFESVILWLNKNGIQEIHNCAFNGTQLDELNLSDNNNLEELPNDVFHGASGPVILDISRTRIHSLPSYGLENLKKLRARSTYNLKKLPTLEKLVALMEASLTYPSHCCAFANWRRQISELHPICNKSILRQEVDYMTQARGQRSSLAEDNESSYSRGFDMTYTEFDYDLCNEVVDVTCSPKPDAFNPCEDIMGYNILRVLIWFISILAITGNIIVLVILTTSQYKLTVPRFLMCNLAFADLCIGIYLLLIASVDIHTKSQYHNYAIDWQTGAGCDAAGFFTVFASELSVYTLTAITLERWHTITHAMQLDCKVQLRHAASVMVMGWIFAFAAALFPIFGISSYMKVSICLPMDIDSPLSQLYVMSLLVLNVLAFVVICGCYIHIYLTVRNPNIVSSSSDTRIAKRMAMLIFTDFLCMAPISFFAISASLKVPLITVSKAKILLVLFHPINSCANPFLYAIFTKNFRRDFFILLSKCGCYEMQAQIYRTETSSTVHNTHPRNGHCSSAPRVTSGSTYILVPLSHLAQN", "test": "conclusion drawn from the cAMP assay on cells expressing the hFSH receptor; no direct binding assay", "experimental": "Bioactivity of the hFSH analogues was evaluated using Y-1 cells transfected with the FSH receptor. Y-1 cell cultures were mixed with the fusion protein and native pituitary hFSH (control) at varying concentrations and media was assayed for cAMP activity as described in Bouloux et al, 2001.\nFigure 8: FIG. 8: In vitro bioassay of hormone activity. cAMP concentration (fmol/ml) was quantitated in Y1 cells expressing the FSH receptor after treatment with the indicated amount of either pituitary FSH (pFSH) or the FSH analogue, β-hFSH-CTP-α-hFSH (rFSH-CTP).\nThe bioactivity of the β-hFSH-CTP-α analogue was first assessed by an assay of hFSH receptor activity. In this assay, a recombinant native hFSH receptor is expressed in a suitable host cell and cAMP induction is measured following incubation with hormone (Lindau-Shepard et al, 2001)."}
{"binder": "B1", "values": [{"measurement": "binding result", "result": "binds"}]}
